Results as given in US20250114467A1 (SHANGHAI FUDAN ZHANGJIANG BIO PHARMACEUTICAL, published 2025).
Residue numbers refer to the chain shown, from its start.

T1: mouse DLL3 on overexpressing cells (plasmid pCMV3-mDLL3, MG58052-UT) (mouse, UniProt O88516 33-592)
T1 construct: whole, on cells
T1 sequence (looked up): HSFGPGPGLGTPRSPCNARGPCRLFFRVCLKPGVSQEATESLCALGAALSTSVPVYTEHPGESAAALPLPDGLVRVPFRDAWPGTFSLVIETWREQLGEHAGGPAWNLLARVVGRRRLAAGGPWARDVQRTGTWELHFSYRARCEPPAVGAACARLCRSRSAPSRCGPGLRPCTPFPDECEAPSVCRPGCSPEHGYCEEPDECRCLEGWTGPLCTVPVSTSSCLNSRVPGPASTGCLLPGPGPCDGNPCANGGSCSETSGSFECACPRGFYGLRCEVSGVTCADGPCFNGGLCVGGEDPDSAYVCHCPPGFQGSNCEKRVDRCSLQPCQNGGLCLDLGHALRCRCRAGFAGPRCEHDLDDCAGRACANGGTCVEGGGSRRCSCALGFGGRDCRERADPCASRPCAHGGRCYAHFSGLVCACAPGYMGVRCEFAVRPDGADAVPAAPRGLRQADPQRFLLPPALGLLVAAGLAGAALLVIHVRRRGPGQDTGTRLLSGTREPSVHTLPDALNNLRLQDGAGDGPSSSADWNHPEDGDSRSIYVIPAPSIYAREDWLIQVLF

T2: recombinant DLL3 protein (purchased from ACRO, DL3-H5255) (human, UniProt Q9NYJ7 27-479)
T2 construct: Bought; also called human DLL3 protein; hDLL3
T2 sequence (looked up): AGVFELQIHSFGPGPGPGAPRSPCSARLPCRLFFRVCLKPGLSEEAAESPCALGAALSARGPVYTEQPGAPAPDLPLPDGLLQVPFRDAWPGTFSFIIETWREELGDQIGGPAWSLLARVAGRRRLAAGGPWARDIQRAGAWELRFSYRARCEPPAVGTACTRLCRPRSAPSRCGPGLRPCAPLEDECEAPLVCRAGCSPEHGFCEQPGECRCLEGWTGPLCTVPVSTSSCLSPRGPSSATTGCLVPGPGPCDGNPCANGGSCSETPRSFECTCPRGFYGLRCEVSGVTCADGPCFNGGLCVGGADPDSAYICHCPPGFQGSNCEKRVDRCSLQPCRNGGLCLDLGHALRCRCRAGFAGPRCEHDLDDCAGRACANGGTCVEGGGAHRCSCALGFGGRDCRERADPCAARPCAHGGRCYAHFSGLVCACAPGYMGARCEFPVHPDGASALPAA

B1: ch15G2 (antibody, human IgG1, kappa, V domains shown)
VH: EVQLQQSGPELEKPGASVRISCKASGYSFTDYNMHWVKQSNGKSLEWIGNIDPYYGGTNYNQKFEGKATLTVDKSSSTAYMQLKSLTSEDSAVYYCARGGNNYGDYWGQGTTLTVSS
VL: DIQMTQSPASLAASVGETVTITCRASENIYYSLAWYQQKQGKSPQLLIFNANSLEDGVPSRFSGSGSGTQYSMKINSMQPEDTATYFCKQAYDVPWTFGGGTKLEIKR
notes: Chimeric: murine variable regions on human IgG1 heavy and kappa light constant regions; also called chimeric antibody 15G2
B2: ch32E8 (antibody, human IgG1, kappa, V domains shown)
VH: QVTLKESGPGILQPSQTLSLTCSFSGFSLSTSGMGVGWIRQPSGKGLEWLALIWWDDVKRYHPALKSRLTISKDTSSSQVFLKIASVDTADTATYYCARIAEVTGQVGLHYAMDYWGQGTSVTVSS
VL: QTVLTQSPAIMSASLGERVTMTCTASSSVNSSSLHWYQQKPGSSPKLWIYTTSNLASGVPARFSGSGSGTSYSLTISSMEAEDAATYYCHQFHRSPFTFGSGTKLEIKR
notes: Chimeric: murine variable regions on human IgG1 heavy and kappa light constant regions; also called chimeric antibody 32E8
B3: ch33F11 (antibody, human IgG1, kappa, V domains shown)
VH: EVQLQQSGPELVKPGASVKISCKTSGYTFTENTMHWVKQSHGESLEWIGGINPRNGVTSYNQKFKGKATLTVDKSSSTAYMELRSLTSEDSAVYYCTNTYYRDYFDYWGQGTTLTVSS
VL: NIVMTQSPKSMSMSVGERVTLSCKASENVGTYVSWYQQKPDQSPKLLIYGASNRYTGVPDRFTGSGSPTDFTLTISRMQAEDLAHYYCGQTYTYPLTFGAGTKLELKR
notes: Chimeric: murine variable regions on human IgG1 heavy and kappa light constant regions; also called chimeric antibody 33F11
B4: ch1A5 (antibody, human IgG1, kappa, V domains shown)
VH: B3 VH with N32S, T33A, E43K, R54N, V57G, T58I, N61S, T97G, N98S, T99S
VL: B3 VL with K9E, P68A, D70H, R77S, M78V, H85D, Y87H, T91S, T93S
notes: Chimeric: murine variable regions on human IgG1 heavy and kappa light constant regions, expressed in 293F cells; also called chimeric antibody 1A5
B5: ch23G2 (antibody, human IgG1, kappa, V domains shown)
VH: QVQLQQSGPELVRPGVSVKISCKGSGYTFTDYAIHWVKQSRAKSPEWIGIVSTDSGKTSFNQKFKGKATMTVDKSSTTAYMELVRLTSEDSAIYYCARNPYYDYDGYAMDYWGQGTSVTVSS
VL: DIQMTQSSSYLSVSLGGRVTIICKASDHINNWLAWYQQKPGNAPRLIISGATSLETGVPSRFSGSGSGKDYTLSITSLQTEDVATYYCQQYWSIPYTFGGGTKLEIKR
notes: Chimeric: murine variable regions on human IgG1 heavy and kappa light constant regions; also called chimeric antibody 23G2
B6: ch13C2 (antibody, human IgG1, kappa, V domains shown)
VH: EVKLVESGGGLVKPGGSLKLSCAASGFAFSSYDMSWVRQTPEKRLEWVATISSGGSYTYYPDSVKGRFTISRDNGRNTLYLQMSSLRSEDTALYYCASPLLGLRFAYWGQGTLVTVSA
VL: QAVVTQESALTTSPGETVTLTCRSSTGAVTTINYANWVQEKPDHLFTGLIGGTNNRAPGVPARFSGSLIGDKAALTITGAQTEDEAIYFCALYYSNHWVFGGGTKLTVLR
notes: Chimeric: murine variable regions on human IgG1 heavy and kappa light constant regions; also called chimeric antibody 13C2
B7: ch19C7 (antibody, human IgG1, kappa, V domains shown)
VH: EVQLQQSGPELVRPGASVRMSCKASGYTFTYYVMHWVKQKPGLGLEWIGYINPYNDGTEYNEKFKGKATLTSDKSSSTAFMELSSLTSEDSAVYYCARWLLREYAMDYWGQGTSVTVSS
VL: DIQMTQSPASLSASVGETVTITCRASDNIHNYLAWYQQKQGKSPQLLVYNAKTLADGVPSRFSGSGSGTQYSLKINSLQPEDFGSYYCQHFWSTPWTFGGGTKLEIKR
notes: Chimeric: murine variable regions on human IgG1 heavy and kappa light constant regions; also called chimeric antibody 19C7
B8: ch26D9 (antibody, human IgG1, kappa, V domains shown)
VH: EVQLQQSGPELVKPGASVKMSCKASGYTFTTYVMHWVKQKPGQGLEWIGYINPYNDDTNYNEKFKGKATLTSDKSSSTAYMELSSLTSEDSAVYYCARWGLTGTGDYYAMDYWGQGTSVTVSS
VL: B7 VL with D27G, I29V, K42R, L46V, Q79L, S93T, K103T
notes: Chimeric: murine variable regions on human IgG1 heavy and kappa light constant regions; also called chimeric antibody 26D9
B9: ch6A2 (antibody, human IgG1, kappa, V domains shown)
VH: EVQLQQSGPELVKPGASVKISCKASGYTFTDYNMNWVKQSQGKSLEWIGYIYPYNGGTGYNQKFKTKATLTVDNSSSTAYMEFRSLTSEDSAVYYCARSDPYYTMDYWGQGTSVTVSS
VL: IIVMTQTPKFLLVSAGDRVTISCKASQSVNNDVAWYQQKPGQSPKLLIYFTSNRFTGVPDRFTGSGYGTDFTFTISSVQAEDLAVYFCQQDHNSPYTFGGGTKLEIKR
notes: Chimeric: murine variable regions on human IgG1 heavy and kappa light constant regions; also called chimeric antibody 6A2
B10: ch10B1 (antibody, human IgG1, kappa, V domains shown)
VH: DVKLVESGGGLVKPGGSLKLSCAASGFTFSNYTISWVRQTPEKRLEWVATFSSGGSYTYYSDSVKGRFTISRDNAKNTLYLQMSSLKSEDTAMYYCSRDRRSDGYYHLYAMDYWGQGTSVTVSS
VL: DIQMTQTTSSLSASLGDRVTISCRASQDISHYLNWYQQKPDGTVKLLIYYTSRLHSGVPSRFSGSGSGTAYSLTISNLEQEDIATYFCQQGYTLPLTFGAGTKLELKR
notes: Chimeric: murine variable regions on human IgG1 heavy and kappa light constant regions; also called chimeric antibody 10B1

Each binder was assayed against T1, mouse DLL3 on overexpressing cells … (assay: flow cytometry on cells overexpressing mouse DLL3, APC goat anti-human IgG, MFI [left panel]).
Procedure: After washing with 80 μl of PBST (0.1% Tween20) for five times, 25 μl of HRP-labeled goat anti-human secondary antibody (Jackson, 1:10000) was added to each well and incubated at room temperature for 1 hour, discard the supernatant, and the wells were then washed seven times with 80 μl of PBST (0.1% Tween20). After adding 25 μl of TMB chromogen solution for 10 minutes, the reaction was terminated with 2M HCl, and the absorbance value at 450 nm was measured with a Microplate reader (purchased from Biotek, Elx808). […] The binding abilities of the chimeric antibodies to these cells were determined by flow cytometry to assess the cross-reactivity of the antibodies with different species. […] The chimeric antibodies, FDA027, and FDA031 were pre-diluted to 50 μg/ml, and further diluted in a 4-fold gradient across 8 concentration points, with 200 μL of the antibodies to be detected of different concentrations added to each well and incubated on ice for 30 minutes. […] After washing with PBS four times, 100 μL PBS was added to each well to resuspend the cells, which were then analyzed using CytoFLEX (Beckman).

binding result | Binder
no binding (tested: 50 µg/ml) | B1
no binding (tested: 50 µg/ml) | B2

What follows are binders tested against T2, recombinant DLL3 protein (purchased …) (assay: ELISA, plate-coated human DLL3 protein 1 µg/ml).
Text: Six 6-week-old SPF grade female Balb/C mice (purchased from Shanghai Jihui Laboratory Animal Care Co., Ltd.) were selected and randomly divided into two groups, A and B. They were immunized with recombinant DLL3 protein (purchased from ACRO, DL3-H5255) at two-week intervals. Freund's complete adjuvant was used for the first immunization and Freund's incomplete adjuvant was used for subsequent immunizations. On days 35 and 49, blood samples were collected from the mice via orbital bleeding, and the immune serum titers of the mice were detected using conventional methods of ELISA and Flow Cytometry (FACS). ELISA detection method: DLL3 protein was diluted with PBS to a concentration of 1 μg/ml. 100 μl/well was added to a 96-well ELISA plate and incubated overnight at 4° C. The next day, the supernatant was discarded, and each well was blocked with 200 μl of 2% milk in PBS for 2 hours. After discarding the blocking solution, the wells were washed 3 times with 200 μl of PBST (0.1% Tween20). The serum to be detected was pre-diluted 100 times as the starting concentration, followed by a 3-fold gradient dilution across 11 concentrations, with 100 μl added to each well of the ELISA plate. After incubating at room temperature for 1 hour, the supernatant was discarded and the wells were washed 5 times with 200 μl of PBST (0.1% Tween20). Then, 100 μl of HRP-labeled goat anti-mouse secondary antibody (Jackson, 1:10000) was added and incubated at room temperature for 1 hour. After discarding the supernatant, the wells were washed 7 times with 200 μl of PBST (0.1% Tween20). 100 μl of TMB chromogen solution was added to each well for 10 minutes. The reaction was terminated with 2M HCl, and absorbance value at 450 nm was read with a Microplate Reader (purchased from Biotek, Elx808).
For the hybridoma clones with good binding and internalization activities identified in Example 5, the heavy chain variable region sequences were synthesized and cloned into the pFUSEss-CHIg-hG1 vector (purchased from InvivoGen, catalog number pfusess-hchgl) comprising the amino acid sequence of the human antibody IgG1 heavy chain constant region by homologous recombination.

EC50 [ng/mL] | Binder
8.53 | B1
9.55 | B3
9.21 | B4
9.41 | B5
395 | B6
8.83 | B2
8.66 | B7
11.8 | B8
13.1 | B9
16.8 | B10
